Where two headings read alike, the source gives them in different places.
Legend:
[1] = target: Rat MBL, deletion mutant (one Gly-Xaa-Yaa triplet removed from the collagenous domain) (rat) (UniProt P19999); test: SPR
[2] = target: Rat MBL, double-deletion mutant (two Gly-Xaa-Yaa triplets removed from the collagenous domain) (rat) (UniProt P19999); test: SPR
[3] = target: Rat MBL, insertion mutant (a single Gly-Pro-Hyp inserted near the kink-like region) (rat) (UniProt P19999); test: SPR
[4] = target: Rat MBL, kink mutant (kink-like region removed by insertion of a proline residue) (rat) (UniProt P19999); test: SPR
[5] = target: Recombinant rat mannose-binding lectin (MBL), wild-type (rat) (UniProt P19999); test: SPR
[6] = target: SPA-KL (SP-A with Glu63 to Lys and Cys64 to Leu); test: SPR
[7] = target: SPA-KLP (SP-A with Glu63 to Lys, Cys64 to Leu and Glu66 to Pro); test: SPR
[8] = target: SPA-KLPO (SPA-KLP with Lys67 replaced by hydroxyproline); test: SPR
[9] = target: SPA-KLPOS (SPA-KLPO with the cysteine of the kink replaced by serine); test: SPR
[10] = target: SPA-KLPOdel (SPA-KLPO with the kink sequence PCPP removed); test: SPR
[11] = target: Recombinant rat mannose-binding lectin (MBL), wild-type (rat) (UniProt P19999); test: SPR; remark: listed apart in the source
[12] = target: SPA-KLP (SP-A with Glu63 to Lys, Cys64 to Leu and Glu66 to Pro)
[13] = target: SPA-KLPO (SPA-KLP with Lys67 replaced by hydroxyproline)
[14] = target: SPA-KLPOS (SPA-KLPO with the cysteine of the kink replaced by serine)
[15] = target: SPA-KLPOdel (SPA-KLPO with the kink sequence PCPP removed)

“MASP-2A (rat MBL-associated serine protease-2, catalytically inactive, Ser613 to Ala) (enzyme)” gave a KD, complex 2 [1] of 175 nM, a koff, complex 1 [1] of 0.0038 s⁻¹ and a koff, complex 2 [1] of 0.0054 s⁻¹. It also gave a KD, complex 2 [2] of 195 nM, a KD, complex 1 [3] of 4.9 nM and a KD, complex 2 [3] of 199 nM. The KD, complex 2 [4] was 136 nM, the koff, complex 1 [4] was 0.0062 s⁻¹ and the KD, complex 2 [5] was 165 nM. It also gave a koff, complex 2 [5] of 0.00475 s⁻¹, a KD, complex 2 [6] of 2120 nM and a KD, complex 2 [7] of 104 nM. The koff, complex 2 [7] was 0.0176 s⁻¹, the kon, complex 1 [7] was 54000 M⁻¹ s⁻¹ and the kon, complex 2 [7] was 360000 M⁻¹ s⁻¹. For the same substance, the KD, complex 1 [8] was 97 nM, the KD, complex 2 [8] was 232 nM and the koff, complex 1 [8] was 0.0025 s⁻¹. For the same substance, the koff, complex 2 [8] was 0.022 s⁻¹, the kon, complex 1 [8] was 26000 M⁻¹ s⁻¹ and the kon, complex 2 [8] was 96000 M⁻¹ s⁻¹. It also gave a KD, complex 1 [9] of 99 nM, a KD, complex 2 [9] of 203 nM and a koff, complex 1 [9] of 0.0046 s⁻¹. It also gave a koff, complex 2 [9] of 0.037 s⁻¹, a kon, complex 1 [9] of 45000 M⁻¹ s⁻¹ and a kon, complex 2 [9] of 210000 M⁻¹ s⁻¹. The KD, complex 1 [10] was 29 nM, the KD, complex 2 [10] was 114 nM and the koff, complex 1 [10] was 0.0017 s⁻¹. For the same substance, the koff, complex 2 [10] was 0.021 s⁻¹, the kon, complex 1 [10] was 53000 M⁻¹ s⁻¹ and the KD, complex 1 [11] was 3.8 nM. It also gave a KD, complex 2 [11] of 166 nM.
“MASP-2K (rat MBL-associated serine protease-2, catalytically active, Arg424 to Lys) (enzyme)” was tested, and the Half-time for MASP-2K activation, fucose-Sepharose as target [12] was 270 min, the Half-time for MASP-2K activation, fucose-Sepharose as target [13] was 256 min and the Half-time for MASP-2K activation, fucose-Sepharose as target [14] was 166 min. It also gave a Half-time for MASP-2K activation, fucose-Sepharose as target [15] of 316 min.

Source: PMC2856262
